{"source": "patent US20060051772A1", "about": "(LUDWIG INSTITUTE FOR CANCER RESEARCH, published 2006)", "target": "HLA-DR molecule DRB1*0301 (human)", "assay": "cell-based or functional assay"}
{"binder": "WEKMKSSEKIVYVYM", "note": "[peptide SSX-4 37-51]", "values": [{"measurement": "peptide titration assay: recognition by SSX-4 31-50 reactive CD4+ T cells from LAU 331, efficiency against peptide SSX-4 31-50", "result": 3, "unit": "fold"}]}
